According to the RNAGym collection of RNA variant scans (doi:10.1093/molbev/msab373):

B1: Azoarcus group I ribozyme (parent)
chain: GUGCCUUGCGCCGGGAAACCACGCAAGGGAUGGUGUCAAAUUCGGCGAAACCUAAGCGCCCGCCCGGGCGUAUGGCAACGCCGAGCCAAGCUUCGGCGCCUGCGCCGAUGAAGGUGUAGAGACUAGACGGCACCCACCUAAGGCAAACGCUAUGGUGAAGGCAUAGUCCAGGGAGUGGCGAAAGUCACACAAACCGG

Variants of: B1
Test: reverse-splicing fitness (ratio to wild type); higher = more active; in vitro selection; Mg2+ level not given
Procedure, shortened: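 An in vitro group I ribozyme library with randomized positions was T7-transcribed and gel-purified. In triplicate, 10 pmol RNA in EPPS pH 7.5 was reacted with 50 pmoles of a 30-nt RNA substrate for 1 h at 37 °C across several added MgCl2 levels (1–48 mM), then stopped with EDTA. Products were reverse transcribed from a substrate-complementary primer, PCR-amplified and sequenced (HiSeq 4000). Fitness is a variant's read proportion after selection over that before, normalised to wild type.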

Row | Variant | reverse-splicing fitness
1 | C82A A111C A145U C150G C169A U176C | 0.0117
2 | C82A A111C A145U C150G C169A U176G | 0.00861
3 | C82A A111C A145U C150G C169G | 0.00748
4 | C82A A111C A145U C150G C169G U176A | 0.00679
5 | C82A A111C A145U C150G C169G U176C | 0.0061
6 | C82A A111C A145U C150G C169G U176G | 0.00861
7 | C82A A111C A145U C150G C169U | 0.00887
8 | C82A A111C A145U C150G C169U U176A | 0.00845
9 | C82A A111C A145U C150G C169U U176C | 0.0113
10 | C82A A111C A145U C150G C169U U176G | 0.00827
11 | C82A A111C A145U C150G U176A | 0.00919
12 | C82A A111C A145U C150G U176C | 0.0161
13 | C82A A111C A145U C150G U176G | 0.00428
14 | C82A A111C A145U C150U | 0.135
15 | C82A A111C A145U C150U C169A | 0.00867
16 | C82A A111C A145U C150U C169A U176A | 0.014
17 | C82A A111C A145U C150U C169A U176C | 0.0146
18 | C82A A111C A145U C150U C169A U176G | 0.00861
19 | C82A A111C A145U C150U C169G | 0.00899
20 | C82A A111C A145U C150U C169G U176A | 0.0143
21 | C82A A111C A145U C150U C169G U176C | 0.0179

Row | Variant | reverse-splicing fitness
22 | C82A A111C A145U C150U C169G U176G | 0.00855
23 | C82A A111C A145U C150U C169U | 0.0128
24 | C82A A111C A145U C150U C169U U176A | 0.0172
25 | C82A A111C A145U C150U C169U U176C | 0.0144
26 | C82A A111C A145U C150U C169U U176G | 0.00857
27 | C82A A111C A145U C150U U176A | 0.0486
28 | C82A A111C A145U C150U U176C | 0.0623
29 | C82A A111C A145U C150U U176G | 0.0141
30 | C82A A111C A145U C169A | 0.0078
31 | C82A A111C A145U C169A U176A | 0.0138
32 | C82A A111C A145U C169A U176C | 0.0156
33 | C82A A111C A145U C169A U176G | 0.0095
34 | C82A A111C A145U C169G | 0.0101
35 | C82A A111C A145U C169G U176A | 0.0124
36 | C82A A111C A145U C169G U176C | 0.0193
37 | C82A A111C A145U C169G U176G | 0.00756
38 | C82A A111C A145U C169U | 0.0124
39 | C82A A111C A145U C169U U176A | 0.0149
40 | C82A A111C A145U C169U U176C | 0.0144
41 | C82A A111C A145U C169U U176G | 0.00718
42 | C82A A111C A145U U176A | 0.073

Row | Variant | reverse-splicing fitness
43 | C82A A111C A145U U176C | 0.0939
44 | C82A A111C A145U U176G | 0.0235
45 | C82A A111C C150A | 0.0239
46 | C82A A111C C150A C169A | 0.00979
47 | C82A A111C C150A C169A U176A | 0.0188
48 | C82A A111C C150A C169A U176C | 0.0237
49 | C82A A111C C150A C169A U176G | 0.00857
50 | C82A A111C C150A C169G | 0.00835
51 | C82A A111C C150A C169G U176A | 0.0151
52 | C82A A111C C150A C169G U176C | 0.0222
53 | C82A A111C C150A C169G U176G | 0.00951
54 | C82A A111C C150A C169U | 0.0131
55 | C82A A111C C150A C169U U176A | 0.0161
56 | C82A A111C C150A C169U U176C | 0.0182
57 | C82A A111C C150A C169U U176G | 0.0104
58 | C82A A111C C150A U176A | 0.0165
59 | C82A A111C C150A U176C | 0.0285
60 | C82A A111C C150A U176G | 0.0104
61 | C82A A111C C150G | 0.016
62 | C82A A111C C150G C169A | 0.00766
63 | C82A A111C C150G C169A U176A | 0.00958

Row | Variant | reverse-splicing fitness
64 | C82A A111C C150G C169A U176C | 0.0102
65 | C82A A111C C150G C169A U176G | 0.00698
66 | C82A A111C C150G C169G | 0.00723
67 | C82A A111C C150G C169G U176A | 0.00718
68 | C82A A111C C150G C169G U176C | 0.00508
69 | C82A A111C C150G C169G U176G | 0.00585
70 | C82A A111C C150G C169U | 0.00907
71 | C82A A111C C150G C169U U176A | 0.0073
72 | C82A A111C C150G C169U U176C | 0.0137
73 | C82A A111C C150G C169U U176G | 0.00629
74 | C82A A111C C150G U176A | 0.0084
75 | C82A A111C C150G U176C | 0.0124
76 | C82A A111C C150G U176G | 0.00364
77 | C82A A111C C150U | 0.113
78 | C82A A111C C150U C169A | 0.0115
79 | C82A A111C C150U C169A U176A | 0.0146
80 | C82A A111C C150U C169A U176C | 0.0125
81 | C82A A111C C150U C169A U176G | 0.00801
82 | C82A A111C C150U C169G | 0.00783
83 | C82A A111C C150U C169G U176A | 0.013
84 | C82A A111C C150U C169G U176C | 0.0175
